Results from US20040205843A1 (NORTH CAROLINA STATE UNIVERSITY, published 2004).
Read-outs that look alike come from different tables or passages of the source.

T1: Full length GST-AL1 1-352 (tomato golden mosaic virus (TGMV), UniProt P03567 1-352)
T1 sequence: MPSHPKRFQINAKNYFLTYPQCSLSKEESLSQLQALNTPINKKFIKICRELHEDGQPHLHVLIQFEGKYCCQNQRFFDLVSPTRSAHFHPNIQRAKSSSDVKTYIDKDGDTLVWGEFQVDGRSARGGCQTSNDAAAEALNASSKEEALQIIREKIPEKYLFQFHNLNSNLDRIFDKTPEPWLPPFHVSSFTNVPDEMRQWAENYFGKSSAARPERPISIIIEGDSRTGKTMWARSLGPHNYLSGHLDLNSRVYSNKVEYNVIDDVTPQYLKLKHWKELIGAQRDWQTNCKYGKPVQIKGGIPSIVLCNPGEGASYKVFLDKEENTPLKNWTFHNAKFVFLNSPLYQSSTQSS

B1: AL1 AAA136 (Leu) fused to the Gal4 activation domain (pNSB785) (other)
chain: MPSHPKRFQINAKNYFLTYPQCSLSKEESLSQLQALNTPINKKFIKICRELHEDGQPHLHVLIQFEGKYCCQNQRFFDLVSPTRSAHFHPNIQRAKSSSDVKTYIDKDGDTLVWGEFQVDGRSARGGCQTSNDLLLEALNASSKEEALQIIREKIPEKYLFQFHNLNSNLDRIFDKTPEPWLPPFHVSSFTNVPDEMRQWAENYFGKSSAARPERPISIIIEGDSRTGKTMWARSLGPHNYLSGHLDLNSRVYSNKVEYNVIDDVTPQYLKLKHWKELIGAQRDWQTNCKYGKPVQIKGGIPSIVLCNPGEGASYKVFLDKEENTPLKNWTFHNAKFVFLNSPLYQSSTQSS
B2: AL1 EKY159 (Ala7) fused to the Gal4 activation domain (pNSB760) (other)
chain: MPSHPKRFQINAKNYFLTYPQCSLSKEESLSQLQALNTPINKKFIKICRELHEDGQPHLHVLIQFEGKYCCQNQRFFDLVSPTRSAHFHPNIQRAKSSSDVKTYIDKDGDTLVWGEFQVDGRSARGGCQTSNDAAAEALNASSKEEALQIIREKIPAAALFQFHNLNSNLDRIFDKTPEPWLPPFHVSSFTNVPDEMRQWAENYFGKSSAARPERPISIIIEGDSRTGKTMWARSLGPHNYLSGHLDLNSRVYSNKVEYNVIDDVTPQYLKLKHWKELIGAQRDWQTNCKYGKPVQIKGGIPSIVLCNPGEGASYKVFLDKEENTPLKNWTFHNAKFVFLNSPLYQSSTQSS
B3: AL1 E--N140 + KEE146 (Ala4+5) fused to the Gal4 activation domain (pNSB757) (other)
chain: MPSHPKRFQINAKNYFLTYPQCSLSKEESLSQLQALNTPINKKFIKICRELHEDGQPHLHVLIQFEGKYCCQNQRFFDLVSPTRSAHFHPNIQRAKSSSDVKTYIDKDGDTLVWGEFQVDGRSARGGCQTSNDAAAAALAASSAAAALQIIREKIPEKYLFQFHNLNSNLDRIFDKTPEPWLPPFHVSSFTNVPDEMRQWAENYFGKSSAARPERPISIIIEGDSRTGKTMWARSLGPHNYLSGHLDLNSRVYSNKVEYNVIDDVTPQYLKLKHWKELIGAQRDWQTNCKYGKPVQIKGGIPSIVLCNPGEGASYKVFLDKEENTPLKNWTFHNAKFVFLNSPLYQSSTQSS
B4: AL1 D120 (Ala14) fused to the Gal4 activation domain (pNSB871) (other)
chain: MPSHPKRFQINAKNYFLTYPQCSLSKEESLSQLQALNTPINKKFIKICRELHEDGQPHLHVLIQFEGKYCCQNQRFFDLVSPTRSAHFHPNIQRAKSSSDVKTYIDKDGDTLVWGEFQVAGRSARGGCQTSNDAAAEALNASSKEEALQIIREKIPEKYLFQFHNLNSNLDRIFDKTPEPWLPPFHVSSFTNVPDEMRQWAENYFGKSSAARPERPISIIIEGDSRTGKTMWARSLGPHNYLSGHLDLNSRVYSNKVEYNVIDDVTPQYLKLKHWKELIGAQRDWQTNCKYGKPVQIKGGIPSIVLCNPGEGASYKVFLDKEENTPLKNWTFHNAKFVFLNSPLYQSSTQSS
B5: AL1 Q-HN165 (Ala8) fused to the Gal4 activation domain (pNSB761) (other)
chain: MPSHPKRFQINAKNYFLTYPQCSLSKEESLSQLQALNTPINKKFIKICRELHEDGQPHLHVLIQFEGKYCCQNQRFFDLVSPTRSAHFHPNIQRAKSSSDVKTYIDKDGDTLVWGEFQVDGRSARGGCQTSNDAAAEALNASSKEEALQIIREKIPEKYLFAFAALNSNLDRIFDKTPEPWLPPFHVSSFTNVPDEMRQWAENYFGKSSAARPERPISIIIEGDSRTGKTMWARSLGPHNYLSGHLDLNSRVYSNKVEYNVIDDVTPQYLKLKHWKELIGAQRDWQTNCKYGKPVQIKGGIPSIVLCNPGEGASYKVFLDKEENTPLKNWTFHNAKFVFLNSPLYQSSTQSS
B6: AL1 REK154 (Ala6), full length, untagged (other)
chain: MPSHPKRFQINAKNYFLTYPQCSLSKEESLSQLQALNTPINKKFIKICRELHEDGQPHLHVLIQFEGKYCCQNQRFFDLVSPTRSAHFHPNIQRAKSSSDVKTYIDKDGDTLVWGEFQVDGRSARGGCQTSNDAAAEALNASSKEEALQIIAAAIPEKYLFQFHNLNSNLDRIFDKTPEPWLPPFHVSSFTNVPDEMRQWAENYFGKSSAARPERPISIIIEGDSRTGKTMWARSLGPHNYLSGHLDLNSRVYSNKVEYNVIDDVTPQYLKLKHWKELIGAQRDWQTNCKYGKPVQIKGGIPSIVLCNPGEGASYKVFLDKEENTPLKNWTFHNAKFVFLNSPLYQSSTQSS
B7: AL1 FQ118 (Ala13) fused to the Gal4 activation domain (pNSB872) (other)
chain: MPSHPKRFQINAKNYFLTYPQCSLSKEESLSQLQALNTPINKKFIKICRELHEDGQPHLHVLIQFEGKYCCQNQRFFDLVSPTRSAHFHPNIQRAKSSSDVKTYIDKDGDTLVWGEAAVDGRSARGGCQTSNDAAAEALNASSKEEALQIIREKIPEKYLFQFHNLNSNLDRIFDKTPEPWLPPFHVSSFTNVPDEMRQWAENYFGKSSAARPERPISIIIEGDSRTGKTMWARSLGPHNYLSGHLDLNSRVYSNKVEYNVIDDVTPQYLKLKHWKELIGAQRDWQTNCKYGKPVQIKGGIPSIVLCNPGEGASYKVFLDKEENTPLKNWTFHNAKFVFLNSPLYQSSTQSS
B8: AL1 N-DR172 (Ala9), full length, untagged (other)
chain: MPSHPKRFQINAKNYFLTYPQCSLSKEESLSQLQALNTPINKKFIKICRELHEDGQPHLHVLIQFEGKYCCQNQRFFDLVSPTRSAHFHPNIQRAKSSSDVKTYIDKDGDTLVWGEFQVDGRSARGGCQTSNDAAAEALNASSKEEALQIIREKIPEKYLFQFHNLNSALAAIFDKTPEPWLPPFHVSSFTNVPDEMRQWAENYFGKSSAARPERPISIIIEGDSRTGKTMWARSLGPHNYLSGHLDLNSRVYSNKVEYNVIDDVTPQYLKLKHWKELIGAQRDWQTNCKYGKPVQIKGGIPSIVLCNPGEGASYKVFLDKEENTPLKNWTFHNAKFVFLNSPLYQSSTQSS
B9: AL1 K144 fused to the Gal4 activation domain (pNSB916) (other)
chain: MPSHPKRFQINAKNYFLTYPQCSLSKEESLSQLQALNTPINKKFIKICRELHEDGQPHLHVLIQFEGKYCCQNQRFFDLVSPTRSAHFHPNIQRAKSSSDVKTYIDKDGDTLVWGEFQVDGRSARGGCQTSNDAAAEALNASSAEEALQIIREKIPEKYLFQFHNLNSNLDRIFDKTPEPWLPPFHVSSFTNVPDEMRQWAENYFGKSSAARPERPISIIIEGDSRTGKTMWARSLGPHNYLSGHLDLNSRVYSNKVEYNVIDDVTPQYLKLKHWKELIGAQRDWQTNCKYGKPVQIKGGIPSIVLCNPGEGASYKVFLDKEENTPLKNWTFHNAKFVFLNSPLYQSSTQSS
B10: AL1 Q-HN165 (Ala8), full length, untagged (other)
chain: MPSHPKRFQINAKNYFLTYPQCSLSKEESLSQLQALNTPINKKFIKICRELHEDGQPHLHVLIQFEGKYCCQNQRFFDLVSPTRSAHFHPNIQRAKSSSDVKTYIDKDGDTLVWGEFQVDGRSARGGCQTSNDAAAEALNASSKEEALQIIREKIPEKYLFAFAALNSNLDRIFDKTPEPWLPPFHVSSFTNVPDEMRQWAENYFGKSSAARPERPISIIIEGDSRTGKTMWARSLGPHNYLSGHLDLNSRVYSNKVEYNVIDDVTPQYLKLKHWKELIGAQRDWQTNCKYGKPVQIKGGIPSIVLCNPGEGASYKVFLDKEENTPLKNWTFHNAKFVFLNSPLYQSSTQSS
B11: AL1 RS-R125 (Ala1) fused to the Gal4 activation domain (pNSB786) (other)
chain: MPSHPKRFQINAKNYFLTYPQCSLSKEESLSQLQALNTPINKKFIKICRELHEDGQPHLHVLIQFEGKYCCQNQRFFDLVSPTRSAHFHPNIQRAKSSSDVKTYIDKDGDTLVWGEFQVDGAAAAGGCQTSNDAAAEALNASSKEEALQIIREKIPEKYLFQFHNLNSNLDRIFDKTPEPWLPPFHVSSFTNVPDEMRQWAENYFGKSSAARPERPISIIIEGDSRTGKTMWARSLGPHNYLSGHLDLNSRVYSNKVEYNVIDDVTPQYLKLKHWKELIGAQRDWQTNCKYGKPVQIKGGIPSIVLCNPGEGASYKVFLDKEENTPLKNWTFHNAKFVFLNSPLYQSSTQSS
B12: AL1 N-DR172 (Ala9) fused to the Gal4 activation domain (pNSB762) (other)
chain: MPSHPKRFQINAKNYFLTYPQCSLSKEESLSQLQALNTPINKKFIKICRELHEDGQPHLHVLIQFEGKYCCQNQRFFDLVSPTRSAHFHPNIQRAKSSSDVKTYIDKDGDTLVWGEFQVDGRSARGGCQTSNDAAAEALNASSKEEALQIIREKIPEKYLFQFHNLNSALAAIFDKTPEPWLPPFHVSSFTNVPDEMRQWAENYFGKSSAARPERPISIIIEGDSRTGKTMWARSLGPHNYLSGHLDLNSRVYSNKVEYNVIDDVTPQYLKLKHWKELIGAQRDWQTNCKYGKPVQIKGGIPSIVLCNPGEGASYKVFLDKEENTPLKNWTFHNAKFVFLNSPLYQSSTQSS
B13: AL1 REK154 (Ala6) fused to the Gal4 activation domain (pNSB759) (other)
chain: MPSHPKRFQINAKNYFLTYPQCSLSKEESLSQLQALNTPINKKFIKICRELHEDGQPHLHVLIQFEGKYCCQNQRFFDLVSPTRSAHFHPNIQRAKSSSDVKTYIDKDGDTLVWGEFQVDGRSARGGCQTSNDAAAEALNASSKEEALQIIAAAIPEKYLFQFHNLNSNLDRIFDKTPEPWLPPFHVSSFTNVPDEMRQWAENYFGKSSAARPERPISIIIEGDSRTGKTMWARSLGPHNYLSGHLDLNSRVYSNKVEYNVIDDVTPQYLKLKHWKELIGAQRDWQTNCKYGKPVQIKGGIPSIVLCNPGEGASYKVFLDKEENTPLKNWTFHNAKFVFLNSPLYQSSTQSS

Columns and labels:
[1] = target: T2, Wild type TGMV AL1 fused to the Gal4 DNA binding domain (pNSB736) (tomato golden mosaic virus (TGMV))
[2] = target: T3, Maize Rb (amino acids 214-866) fused to the Gal4 DNA binding domain (Zm214C) (maize)
T3 sequence (P04386 1-147): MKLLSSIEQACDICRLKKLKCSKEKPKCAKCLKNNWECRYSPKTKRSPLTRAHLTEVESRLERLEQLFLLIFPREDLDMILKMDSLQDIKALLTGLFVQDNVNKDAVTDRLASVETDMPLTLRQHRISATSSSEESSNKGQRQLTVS

[3] = target: T2, Wild type TGMV AL1 fused to the Gal4 …; remark: listed apart in the source
[4] = target: T1, Full length GST-AL1 1-352; assay: GST co-purification from insect cells, immunoblot
[5] = target: T3, Maize Rb (amino acids 214-866) fused to …; remark: listed apart in the source

Binder	oligomer. (oligomerization activity relative to wild type) [1]	Rep/Rb (Rb binding activity relative to wild type) [2]	oligomer. (oligomerization activity relative to wild type) [3]	also measured
B1	30 relative to wild type (100)	8 relative to wild type (100)	–	–
B2	–	31 relative to wild type (100)	–	–
B3	88 relative to wild type (100)	45 relative to wild type (100)	88 relative to wild type (100)	–
B4	–	–	67 relative to wild type (100)	–
B5	–	–	102 relative to wild type (100)	–
B6	–	–	–	binding result [4]: binds
B7	95 relative to wild type (100)	23 relative to wild type (100)	95 relative to wild type (100)	–
B8	–	–	–	binding result [4]: binds
B9	–	–	–	RBR1 interactions, percent of wild type levels [5]: 42 % of wild type
B10	–	–	–	binding result [4]: binds
B11	27 relative to wild type (100)	20 relative to wild type (100)	27 relative to wild type (100)	–
B12	–	–	31 relative to wild type (100)	–
B13	57 relative to wild type (100)	69 relative to wild type (100)	57 relative to wild type (100)	fold reduction of RBR1 binding activity against wild type [5]: 2 fold
